# Laboratory results: patent publication US20210317201A1 (Boehringer Ingelheim, published 2021)
# “And” between values parts separate entries of the source, which are not always exact repeats. Equal entries are not always repeated.
# T1: recombinant human IL-23 (human, UniProt P29460 23-328)
# T1 sequence 1: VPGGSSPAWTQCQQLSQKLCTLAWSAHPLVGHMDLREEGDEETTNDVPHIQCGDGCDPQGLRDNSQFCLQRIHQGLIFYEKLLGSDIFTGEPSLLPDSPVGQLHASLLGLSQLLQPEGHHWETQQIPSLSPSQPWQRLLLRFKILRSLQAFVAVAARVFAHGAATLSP
# T1 sequence 2: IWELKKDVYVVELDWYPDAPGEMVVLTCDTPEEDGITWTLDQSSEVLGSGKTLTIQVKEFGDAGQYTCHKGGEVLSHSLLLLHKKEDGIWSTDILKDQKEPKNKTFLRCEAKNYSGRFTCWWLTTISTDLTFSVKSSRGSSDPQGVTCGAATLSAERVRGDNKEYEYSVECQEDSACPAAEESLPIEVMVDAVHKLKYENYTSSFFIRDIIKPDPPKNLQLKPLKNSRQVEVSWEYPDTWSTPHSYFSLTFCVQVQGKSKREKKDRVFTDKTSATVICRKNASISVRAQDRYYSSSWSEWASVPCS
# T2: natural human IL-23 from activated THP-1 cells (human, UniProt P29460 23-328)
# T2 sequence 1: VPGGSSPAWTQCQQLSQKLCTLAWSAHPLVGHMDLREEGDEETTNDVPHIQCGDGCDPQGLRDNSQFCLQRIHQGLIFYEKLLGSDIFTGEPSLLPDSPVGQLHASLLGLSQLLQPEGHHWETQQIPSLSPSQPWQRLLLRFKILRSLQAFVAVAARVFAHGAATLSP
# T2 sequence 2: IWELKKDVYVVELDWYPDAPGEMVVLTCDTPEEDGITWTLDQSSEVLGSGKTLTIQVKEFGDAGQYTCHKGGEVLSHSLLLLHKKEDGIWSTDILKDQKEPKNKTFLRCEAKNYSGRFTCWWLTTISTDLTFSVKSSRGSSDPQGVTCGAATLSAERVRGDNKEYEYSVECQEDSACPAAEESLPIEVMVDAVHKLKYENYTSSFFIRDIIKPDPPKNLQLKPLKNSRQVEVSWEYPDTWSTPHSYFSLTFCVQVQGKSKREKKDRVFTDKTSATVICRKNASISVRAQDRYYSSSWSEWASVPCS
# Legend:
# [1] = target: T1, recombinant human IL-23; experiment: cell-based or functional assay
# [2] = target: T2, natural human IL-23 from activated …; experiment: cell-based or functional assay
# [3] = target: T1, recombinant human IL-23; experiment: BLI, Fortebio Octet; hybridoma-derived antibody
# Description: Kinetics and binding affinities were measured using the Fortebio OCTET® (Fortebio, Menlo Park, Calif.) using material generated from hybridoma following single column purification.
"IC50, IL-23 stimulated IL-17 production from mouse splenocytes [1]","IC50, IL-23 stimulated IL-17 production from mouse splenocytes [2]",Kd [3],koff [3],kon [3],Binder
0.059 nM,0.281 nM and 0.138 nM,< 0.001 nM,< 1e-06 s⁻¹,–,"9D12 (antibody, V domains shown, Mouse monoclonal antibody from hybridoma; also called 9D12-Vk; 9D12VH) VH: QVQLKESGPVLVAPSQSLSITCTVSGFSLNNFAISWVRQPPGKGLEWLGAIWTGGGTNYNSALKSRLSISKDNSKSQVFLKMNSLQTDDTARYYCVRKDYSYGGAMDYWGQGTSVTVSS VL: DIALTQSPASLAVSLGQRATISCRASETINFYGTSFMHWYQQKPGQSPKLLIYRASNLESGIPARFSGSGSRTDFTLTINPVEADDVATYYCQQTNEDPYTFGGGTKLEIK"
0.51 nM,0.456 nM,0.544 nM,1.87e-06 s⁻¹,3440 M⁻¹ s⁻¹,"34D9 (antibody, V domains shown, Mouse monoclonal antibody from hybridoma; also called 34D9Vk; 34D9VH7) VH: EVQLQQSGPELVKPGASVKIPCKASGYTFTDYNMDWVKKSHGKSLEWIGDINPHNGGTIYNQKFKGKATLTVDKSSSTAHMELRSLTSEDTAVYYCARNYYGSSYGWYFDVWGTGTTVTVSS VL: DIMMTQSHKFMSTSVGDRVSITCKASQDVGNAVVWYQQKPGQSPKLLIYWASTRHIGVPDRFTGSGSGTDFTLTITNVQSEDLADYFCQQYSSYLTFGAGTKLELK"
0.96 nM,2 nM,0.0115 nM,3.45e-06 s⁻¹,299000 M⁻¹ s⁻¹,"31H9 (antibody, V domains shown, Mouse monoclonal antibody from hybridoma; also called 31H9vk; 31H9vh) VH: EVQLQQSGPELVKPGASVKMSCKASGYTFTRYLMHWVKQKPGQGLEWIGYINPYNDGTNYNEKFKGKATLTSDKSSSTAYMELSSLTSEDSAVYYCSLNWDYAYWGQGTLVTVSA VL: DIVMTQSPATLSVTPGDRVSLSCRASQSISDYLHWYQQKSHESPRLLIKYASQSISGIPSRFSGSGSGSDFTLSINSVEPEDVGVYYCQNGHSFPYTFGGGTKLEIK"
0.235 nM,5 nM,0.0272 nM,4.26e-06 s⁻¹,157000 M⁻¹ s⁻¹,"27G8 (antibody, V domains shown, Mouse monoclonal antibody from hybridoma; also called 27G8vk; 27G8vh) VH: QVQLQQSDAELVKPGASVKISCKVSGYTFTDHTIHWMKQRPEQGLEWIGYIYPRDGYPKFNEKFKGKATLTADKSSSTAYMQLNSLTSEDSAVYFCARRPPYYAMDYWGQGTSVAVSS VL: DIVLTQSPASLAVSLGQRATISCRASKSVSTSGYSYIHWYQQKPGQPPKFLIYLASNLDSGVPARFSGSGSGTDFTLNIHPVEEEDAATYYCQHSRELPYTFGGGTKLEIK"
0.126 nM,0.232 nM,0.026 nM,1.07e-05 s⁻¹,411000 M⁻¹ s⁻¹,"15C11 (antibody, V domains shown, Mouse monoclonal antibody from hybridoma; also called 15C11vk; 15C11vh) VH: EVQLQQSGPVLVKPGASVKMSCKASGYTFTDYYMNWVKQSHGKSLEWIGVIIPYNGGTSYNQKFKGKATLTVDKSSSTAYMELNSLTSEDSAVYYCARDGHRWYFDVWGTGTTVTVSS VL: DVVMTQTPLSLPVSLGDQASISCRSSQSLVHSNGNTYLHWYLQKPGQSPKLLIYKVSNRFSGVPDRFSGSGSGTDFTLKINRVEAEDLGVYFCSQSTHVPYTFGGGTQLEIK"
0.336 nM,0.027 nM and 0.025 nM,0.0328 nM,3.1e-05 s⁻¹,918000 M⁻¹ s⁻¹,"34G3 (antibody, V domains shown, Mouse monoclonal antibody from hybridoma; also called 34G3Vk; 34G3VH) VH: EFQLQQSGPELVKPGASVKISCKASGYSFTDYNMNWVKQSKGKSLEWIGVIIPNYGFTSYNQNFKGKATLTVDQSSSTAHMQLNSVTSEDSAVYYCVRDGGILLWYLDVWGTGTTVTVSS VL: DVVMTQTPLSLPVSLGDQASISCRSSQSLVHSNGNTYLHWYLQKPGQSPKLLIYKVSNRFSGVPDRFSGSGSGTDFTLKISRVEAEDLGVYFCSQSTHVPYTFGGGTKLEIN"
